# Experimental data taken from article PMC4660199.
# Where no end group is shown, it is not given here.
# Biological target: full-length cpSRP43 (UniProt O22265)
# Experiment: ITC; VP-ITC, 20 °C, 20 mM Hepes (pH 7.5), 150 mM NaCl, 5 mM MgCl2, 0.25 mM TCEP; 0.01–0.1 mM in the cell, 0.1–1.0 mM in the syringe; duplicate or triplicate
row,Binder,Kd [µM]
1,"GALASSTTSKPLPEVGQRRSKRSKRKRT (also: 15N,13C labelled where it is the observed NMR partner) [A3CT IV peptide]",15
2,A3CT K457A/R458A (domain or fragment) DENASKIISAGRAKRSIAQPDDAGERFRQLKEQEKRSKKNKAVAKDTVELVEESQSESEEGSDDEEEEAREGALASSTTSKPLPEVGQRRSKRSAAKRTV,44
3,A3CT K459A/R460A (domain or fragment) DENASKIISAGRAKRSIAQPDDAGERFRQLKEQEKRSKKNKAVAKDTVELVEESQSESEEGSDDEEEEAREGALASSTTSKPLPEVGQRRSKRSKRAATV,20
